# Paper PMC7863910, “A novel stress-inducible CmtR-ESX3-Zn^2+ regulatory pathway essential for survival of Mycobacterium bovis under oxidative stress” (The Journal of Biological Chemistry, 2020)
# T1: Zur (zinc uptake repressor), purified (UniProt P9WN85 1-130)
# T1 sequence: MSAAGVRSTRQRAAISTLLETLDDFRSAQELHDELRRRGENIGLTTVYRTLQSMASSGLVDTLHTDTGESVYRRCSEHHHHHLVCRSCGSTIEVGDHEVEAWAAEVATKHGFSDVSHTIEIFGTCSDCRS
# Target: T1, Zur (zinc uptake repressor), purified
# Assay: SPR; Biacore 3000; […] (200 nM) […]; running buffer 10 mM HEPES pH 7.4, 150 mM NaCl, 50 mM EDTA, 0.005% surfactant P20
# Settings: both partners purified
binder,measurement,value
"CmtR, His-tagged, purified (natural protein, also called His-tagged CmtR) MLTCEMRESALARLGRALADPTRCRILVALLDGVCYPGQLAAHLGLTRSNVSNHLSCLRGCGLVVATYEGRQVRYALADSHLARALGELVQVVLAVDTDQPCVAERAASGEAVEMTGS",binding result,binds
